The values below come from paper PMC10992996.

The assay deals with Human canonical CRB2 (Crumbs homolog 2), Q5IJ48-1. The experiment in a line: co-IP (FLAG-IP) and Western blot quantification. The conditions noted are these: chain shown with the change; co-transfected in HEK293T cells; three biological replicates; parent: est. 1.0; read off a plot. (In western blotting, separated proteins are transferred to a membrane and probed.)
Sequence of Human canonical CRB2 (Crumbs homolog 2), Q5IJ48-1 (Q5IJ48 29-1285): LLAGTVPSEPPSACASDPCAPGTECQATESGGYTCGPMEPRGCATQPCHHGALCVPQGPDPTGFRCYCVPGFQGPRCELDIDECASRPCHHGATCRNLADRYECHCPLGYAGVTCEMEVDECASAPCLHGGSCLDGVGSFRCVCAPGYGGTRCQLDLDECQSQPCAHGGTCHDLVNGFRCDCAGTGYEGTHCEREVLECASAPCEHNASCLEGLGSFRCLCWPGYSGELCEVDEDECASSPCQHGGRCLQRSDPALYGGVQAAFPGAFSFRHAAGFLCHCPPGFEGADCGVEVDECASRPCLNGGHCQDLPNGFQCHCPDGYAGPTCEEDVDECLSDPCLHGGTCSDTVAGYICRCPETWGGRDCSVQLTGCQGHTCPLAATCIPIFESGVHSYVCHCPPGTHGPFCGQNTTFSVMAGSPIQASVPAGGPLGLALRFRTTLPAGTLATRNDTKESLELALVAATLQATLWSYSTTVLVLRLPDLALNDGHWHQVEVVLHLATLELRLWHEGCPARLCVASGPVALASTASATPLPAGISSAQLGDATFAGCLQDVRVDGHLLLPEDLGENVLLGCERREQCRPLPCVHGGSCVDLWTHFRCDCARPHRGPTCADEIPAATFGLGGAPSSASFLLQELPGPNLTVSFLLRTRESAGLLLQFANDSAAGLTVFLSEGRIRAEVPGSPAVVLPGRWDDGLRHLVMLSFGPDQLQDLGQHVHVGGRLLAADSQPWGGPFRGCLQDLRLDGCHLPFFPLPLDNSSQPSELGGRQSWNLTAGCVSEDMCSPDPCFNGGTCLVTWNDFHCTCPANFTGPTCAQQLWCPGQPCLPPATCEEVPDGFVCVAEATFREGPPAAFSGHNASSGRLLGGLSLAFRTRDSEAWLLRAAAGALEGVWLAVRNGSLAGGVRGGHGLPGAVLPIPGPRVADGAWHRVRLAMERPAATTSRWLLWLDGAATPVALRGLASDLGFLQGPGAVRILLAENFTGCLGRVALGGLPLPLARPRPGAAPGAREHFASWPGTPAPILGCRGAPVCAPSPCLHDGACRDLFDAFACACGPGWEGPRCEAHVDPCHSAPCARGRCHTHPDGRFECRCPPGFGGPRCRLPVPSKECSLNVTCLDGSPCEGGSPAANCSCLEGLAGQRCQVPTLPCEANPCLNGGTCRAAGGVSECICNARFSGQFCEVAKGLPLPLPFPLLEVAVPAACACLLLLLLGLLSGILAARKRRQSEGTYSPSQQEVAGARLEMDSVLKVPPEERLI

B1: Human canonical CRB1 (Crumbs homolog 1), P82279 p.C681Y (protein)
chain: FCNKNNTRCLSNSCQNNSTCKDFSKDNDCSCSDTANNLDKDCDNMKDPCFSNPCQGSATCVNTPGERSFLCKCPPGYSGTICETTIGSCGKNSCQHGGICHQDPIYPVCICPAGYAGRFCEIDHDECASSPCQNGAVCQDGIDGYSCFCVPGYQGRHCDLEVDECASDPCKNEATCLNEIGRYTCICPHNYSGVNCELEIDECWSQPCLNGATCQDALGAYFCDCAPGFLGDHCELNTDECASQPCLHGGLCVDGENRYSCNCTGSGFTGTHCETLMPLCWSKPCHNNATCEDSVDNYTCHCWPGYTGAQCEIDLNECNSNPCQSNGECVELSSEKQYGRITGLPSSFSYHEASGYVCICQPGFTGIHCEEDVNECSSNPCQNGGTCENLPGNYTCHCPFDNLSRTFYGGRDCSDILLGCTHQQCLNNGTCIPHFQDGQHGFSCLCPSGYTGSLCEIATTLSFEGDGFLWVKSGSVTTKGSVCNIALRFQTVQPMALLLFRSNRDVFVKLELLSGYIHLSIQVNNQSKVLLFISHNTSDGEWHFVEVIFAEAVTLTLIDDSCKEKCIAKAPTPLESDQSICAFQNSFLGGLPVGMTSNGVALLNFYNMPSTPSFVGCLQDIKIDWNHITLENISSGSSLNVKAGCVRKDWCESQPYQSRGRCINLWLSYQCDCHRPYEGPNCLREYVAGRFGQDDSTGYVIFTLDESYGDTISLSMFVRTLQPSGLLLALENSTYQYIRVWLERGRLAMLTPNSPKLVVKFVLNDGNVHLISLKIKPYKIELYQSSQNLGFISASTWKIEKGDVIYIGGLPDKQETELNGGFFKGCIQDVRLNNQNLEFFPNPTNNASLNPVLVNVTQGCAGDNSCKSNPCHNGGVCHSRWDDFSCSCPALTSGKACEEVQWCGFSPCPHGAQCQPVLQGFECIANAVFNGQSGQILFRSNGNITRELTNITFGFRTRDANVIILHAEKEPEFLNISIQDSRLFFQLQSGNSFYMLSLTSLQSVNDGTWHEVTLSMTDPLSQTSRWQMEVDNETPFVTSTIATGSLNFLKDNTDIYVGDRAIDNIKGLQGCLSTIEIGGIYLSYFENVHGFINKPQEEQFLKISTNSVVTGCLQLNVCNSNPCLHGGNCEDIYSSYHCSCPLGWSGKHCELNIDECFSNPCIHGNCSDRVAAYHCTCEPGYTGVNCEVDIDNCQSHQCANGATCISHTNGYSCLCFGNFTGKFCRQSRLPSTVCGNEKTNLTCYNGGNCTEFQTELKCMCRPGFTGEWCEKDIDECASDPCVNGGLCQDLLNKFQCLCDVAFAGERCEVDLADDLISDIFTTIGSVTVALLLILLLAIVASVVTSNKRATQGTYSPSRQEKEGSRVEMWNLMPPPAMERLI
Turning to B1, the ratio to parent was found to be 1.1.

B2: Human canonical CRB1 (Crumbs homolog 1), P82279 p.C1321S (protein)
chain: FCNKNNTRCLSNSCQNNSTCKDFSKDNDCSCSDTANNLDKDCDNMKDPCFSNPCQGSATCVNTPGERSFLCKCPPGYSGTICETTIGSCGKNSCQHGGICHQDPIYPVCICPAGYAGRFCEIDHDECASSPCQNGAVCQDGIDGYSCFCVPGYQGRHCDLEVDECASDPCKNEATCLNEIGRYTCICPHNYSGVNCELEIDECWSQPCLNGATCQDALGAYFCDCAPGFLGDHCELNTDECASQPCLHGGLCVDGENRYSCNCTGSGFTGTHCETLMPLCWSKPCHNNATCEDSVDNYTCHCWPGYTGAQCEIDLNECNSNPCQSNGECVELSSEKQYGRITGLPSSFSYHEASGYVCICQPGFTGIHCEEDVNECSSNPCQNGGTCENLPGNYTCHCPFDNLSRTFYGGRDCSDILLGCTHQQCLNNGTCIPHFQDGQHGFSCLCPSGYTGSLCEIATTLSFEGDGFLWVKSGSVTTKGSVCNIALRFQTVQPMALLLFRSNRDVFVKLELLSGYIHLSIQVNNQSKVLLFISHNTSDGEWHFVEVIFAEAVTLTLIDDSCKEKCIAKAPTPLESDQSICAFQNSFLGGLPVGMTSNGVALLNFYNMPSTPSFVGCLQDIKIDWNHITLENISSGSSLNVKAGCVRKDWCESQPCQSRGRCINLWLSYQCDCHRPYEGPNCLREYVAGRFGQDDSTGYVIFTLDESYGDTISLSMFVRTLQPSGLLLALENSTYQYIRVWLERGRLAMLTPNSPKLVVKFVLNDGNVHLISLKIKPYKIELYQSSQNLGFISASTWKIEKGDVIYIGGLPDKQETELNGGFFKGCIQDVRLNNQNLEFFPNPTNNASLNPVLVNVTQGCAGDNSCKSNPCHNGGVCHSRWDDFSCSCPALTSGKACEEVQWCGFSPCPHGAQCQPVLQGFECIANAVFNGQSGQILFRSNGNITRELTNITFGFRTRDANVIILHAEKEPEFLNISIQDSRLFFQLQSGNSFYMLSLTSLQSVNDGTWHEVTLSMTDPLSQTSRWQMEVDNETPFVTSTIATGSLNFLKDNTDIYVGDRAIDNIKGLQGCLSTIEIGGIYLSYFENVHGFINKPQEEQFLKISTNSVVTGCLQLNVCNSNPCLHGGNCEDIYSSYHCSCPLGWSGKHCELNIDECFSNPCIHGNCSDRVAAYHCTCEPGYTGVNCEVDIDNCQSHQCANGATCISHTNGYSCLCFGNFTGKFCRQSRLPSTVCGNEKTNLTCYNGGNCTEFQTELKCMCRPGFTGEWCEKDIDECASDPCVNGGLCQDLLNKFQSLCDVAFAGERCEVDLADDLISDIFTTIGSVTVALLLILLLAIVASVVTSNKRATQGTYSPSRQEKEGSRVEMWNLMPPPAMERLI
For B2, the ratio to parent worked out at 1.

B3: Human canonical CRB1 (Crumbs homolog 1), P82279 p.C948Y (protein)
chain: FCNKNNTRCLSNSCQNNSTCKDFSKDNDCSCSDTANNLDKDCDNMKDPCFSNPCQGSATCVNTPGERSFLCKCPPGYSGTICETTIGSCGKNSCQHGGICHQDPIYPVCICPAGYAGRFCEIDHDECASSPCQNGAVCQDGIDGYSCFCVPGYQGRHCDLEVDECASDPCKNEATCLNEIGRYTCICPHNYSGVNCELEIDECWSQPCLNGATCQDALGAYFCDCAPGFLGDHCELNTDECASQPCLHGGLCVDGENRYSCNCTGSGFTGTHCETLMPLCWSKPCHNNATCEDSVDNYTCHCWPGYTGAQCEIDLNECNSNPCQSNGECVELSSEKQYGRITGLPSSFSYHEASGYVCICQPGFTGIHCEEDVNECSSNPCQNGGTCENLPGNYTCHCPFDNLSRTFYGGRDCSDILLGCTHQQCLNNGTCIPHFQDGQHGFSCLCPSGYTGSLCEIATTLSFEGDGFLWVKSGSVTTKGSVCNIALRFQTVQPMALLLFRSNRDVFVKLELLSGYIHLSIQVNNQSKVLLFISHNTSDGEWHFVEVIFAEAVTLTLIDDSCKEKCIAKAPTPLESDQSICAFQNSFLGGLPVGMTSNGVALLNFYNMPSTPSFVGCLQDIKIDWNHITLENISSGSSLNVKAGCVRKDWCESQPCQSRGRCINLWLSYQCDCHRPYEGPNCLREYVAGRFGQDDSTGYVIFTLDESYGDTISLSMFVRTLQPSGLLLALENSTYQYIRVWLERGRLAMLTPNSPKLVVKFVLNDGNVHLISLKIKPYKIELYQSSQNLGFISASTWKIEKGDVIYIGGLPDKQETELNGGFFKGCIQDVRLNNQNLEFFPNPTNNASLNPVLVNVTQGCAGDNSCKSNPCHNGGVCHSRWDDFSCSCPALTSGKACEEVQWCGFSPCPHGAQCQPVLQGFEYIANAVFNGQSGQILFRSNGNITRELTNITFGFRTRDANVIILHAEKEPEFLNISIQDSRLFFQLQSGNSFYMLSLTSLQSVNDGTWHEVTLSMTDPLSQTSRWQMEVDNETPFVTSTIATGSLNFLKDNTDIYVGDRAIDNIKGLQGCLSTIEIGGIYLSYFENVHGFINKPQEEQFLKISTNSVVTGCLQLNVCNSNPCLHGGNCEDIYSSYHCSCPLGWSGKHCELNIDECFSNPCIHGNCSDRVAAYHCTCEPGYTGVNCEVDIDNCQSHQCANGATCISHTNGYSCLCFGNFTGKFCRQSRLPSTVCGNEKTNLTCYNGGNCTEFQTELKCMCRPGFTGEWCEKDIDECASDPCVNGGLCQDLLNKFQCLCDVAFAGERCEVDLADDLISDIFTTIGSVTVALLLILLLAIVASVVTSNKRATQGTYSPSRQEKEGSRVEMWNLMPPPAMERLI
B3: the ratio to parent turned out to be 1.
